Test results published in patent US20250382726A1.
Each block holds one molecule with its values, some of them ahead of it.

How the values were obtained:
[1] = molecular target: recombinant HER2 (Acro Biosystems; P/N. H5225) (UniProt P04626); assay: BLI (Octet), IgG captured on anti-human Fc biosensors, HER2 5-0.078 nM in solution, 37 C, 1:1 global fit, mean of duplicates
[2] = molecular target: recombinant Cathepsin S protein (UniProt P25774); assay: BLI (Octet), captured IgG, Cathepsin S 200 ng/ml, 25 C; Run 1; Affinity to be determined
[3] = molecular target: recombinant Cathepsin S protein (UniProt P25774); assay: BLI (Octet), captured IgG, Cathepsin S 200 ng/ml, 25 C; Run 1, first Fsn0503h control row
[4] = molecular target: recombinant Cathepsin S protein (UniProt P25774); assay: BLI (Octet), IgG captured on anti-human biosensors, 200 ng/ml recombinant Cathepsin S, 25 C
[5] = molecular target: recombinant Cathepsin S protein (UniProt P25774); assay: BLI (Octet), captured IgG, Cathepsin S 200 ng/ml, 25 C; Run 1, Fsn0503h control
[6] = molecular target: recombinant Cathepsin S protein (UniProt P25774); assay: BLI (Octet), captured IgG, Cathepsin S 200 ng/ml, 25 C; Run 2, Fsn0503h control
[7] = molecular target: recombinant Cathepsin S protein (UniProt P25774); assay: BLI (Octet), captured IgG, Cathepsin S 200 ng/ml, 25 C; Run 2, second Fsn0503h control row

- Kd [1]: 0.126 nM
Molecule: Wild-Type (antibody having sequence of trastuzumab, transiently expressed in parallel with the variants)

- Kd [2]: < 1 pM
- koff [2]: < 1e-07 s⁻¹
- kon [2]: 45100 M⁻¹ s⁻¹
Molecule: WT (antibody)

- Kd [3]: 3.05 nM
- koff [3]: 0.000121 s⁻¹
- kon [3]: 39600 M⁻¹ s⁻¹
- Kd [4]: 4.45 nM
- Kd [5]: 5.47 nM
- koff [5]: 0.000144 s⁻¹
- kon [5]: 26200 M⁻¹ s⁻¹
- Kd [6]: 4.39 nM
- koff [6]: 0.000188 s⁻¹
- kon [6]: 42800 M⁻¹ s⁻¹
- Kd [7]: 5.11 nM
- koff [7]: 0.000242 s⁻¹
B1: Fsn0503h, humanised anti-Cathepsin S antibody (Fusion Antibodies) (antibody, V domains shown)
VH: EVQLVESGGGLVKPGGSLRLSCAASGFAFSSYDMSWVRQAPGKGLEWVAYITTGGVNTYYPDTVKGRFTISRDNAKNTLYLQMSSLKSEDTAVYYCARHSYFDYWGQGTTVTVSS
VL: DVVMTQSPLSLPVTLGQPASISCRSSQSLVHSNGNTYLHWYLQKPGQSPQLLIYKVSNRFSGVPDRFSGSGSGTDFTLKISRVEAEDVGVYYCSQTTHVPPTFGQGTKLEIK
